According to patent publication CN116355095A (SHANGHAI L&L VISION BIOPHARMACEUTICALS CO LTD, dated 2023):
Where “and” joins values, the source holds several entries; their conditions need not be identical. Identical values can stand only once.

Tests used:
人TIGIT-hFc [1] = biological target: T1, 人TIGIT-hFc (human, UniProt Q495A1 22-141; P01857 99-330 = IgG part, limits assumed); experiment: blocking ELISA: Bio-CD155 on coated TIGIT-hFc; reference Ref1
T1 construct: extracellular domain;domain: IgG1 Fc区域; also called hTIGIT

[2] = biological target: T2, 人TIGIT重组蛋白 (hTIGIT; TIGIT-hFc 或 TIGIT-his) (human, UniProt Q495A1 22-141); experiment: ELISA on coated hTIGIT; reference Ref2
T2 construct: extracellular domain; not shown: C-terminal tag (-his, -hFc or -mFc)
T2 sequence (looked up): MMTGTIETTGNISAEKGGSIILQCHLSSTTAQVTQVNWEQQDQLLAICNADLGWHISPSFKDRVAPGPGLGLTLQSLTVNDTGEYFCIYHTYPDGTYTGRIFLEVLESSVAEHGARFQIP

人TIGIT-hFc [3] = biological target: T1, 人TIGIT-hFc; experiment: blocking ELISA: Bio-CD155 on coated TIGIT-hFc
人TIGIT-hFc [4] = biological target: T1, 人TIGIT-hFc; experiment: blocking ELISA: Bio-CD155 on coated TIGIT-hFc; reference Ref2
恒河猴TIGIT-mFc [5] = biological target: T3, 恒河猴TIGIT-mFc (rhesus monkey; mouse, UniProt A0A5F8AKQ5 22-142; P01863 98-330 = IgG part); experiment: ELISA on coated RhTIGIT-mFc; reference Ref2
T3 construct: also called RhTIGIT-mFc; RhTIGIT
T3 sequence (P01863 other isoform, or with tags, fused parts or gaps): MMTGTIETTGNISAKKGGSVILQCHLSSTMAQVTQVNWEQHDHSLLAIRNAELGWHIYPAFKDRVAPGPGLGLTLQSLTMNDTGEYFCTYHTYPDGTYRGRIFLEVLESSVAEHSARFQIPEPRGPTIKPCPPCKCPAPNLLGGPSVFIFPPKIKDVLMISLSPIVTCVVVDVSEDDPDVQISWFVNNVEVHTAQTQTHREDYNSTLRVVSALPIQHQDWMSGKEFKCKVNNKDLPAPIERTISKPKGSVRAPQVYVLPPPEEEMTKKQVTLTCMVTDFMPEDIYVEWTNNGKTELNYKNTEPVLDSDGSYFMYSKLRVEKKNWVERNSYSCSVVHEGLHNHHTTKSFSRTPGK

恒河猴TIGIT-mFc [6] = biological target: T3, 恒河猴TIGIT-mFc; experiment: ELISA on coated RhTIGIT-mFc
CHO-K1-T1001细胞表达的人TIGIT [7] = biological target: T4, CHO-K1-T1001细胞表达的人TIGIT (human, UniProt Q495A1 22-244); experiment: cell ELISA on fixed hTIGIT+ CHO-K1 cells
T4 construct: whole, on cells; also called hTIGIT+细胞; CHO-K1 TIGIT+细胞系
T4 sequence (looked up): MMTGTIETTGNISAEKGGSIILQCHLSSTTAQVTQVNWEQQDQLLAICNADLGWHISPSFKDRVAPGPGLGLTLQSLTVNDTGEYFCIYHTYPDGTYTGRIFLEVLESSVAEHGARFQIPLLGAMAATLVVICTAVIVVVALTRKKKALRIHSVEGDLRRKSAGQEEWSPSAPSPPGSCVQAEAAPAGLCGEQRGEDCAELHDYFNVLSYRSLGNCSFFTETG

恒河猴TIGIT-mFc [8] = biological target: T3, 恒河猴TIGIT-mFc; experiment: ELISA on coated RhTIGIT-mFc; reference Ref1
[9] = biological target: T2, 人TIGIT重组蛋白 (hTIGIT; TIGIT-hFc 或 …); experiment: ELISA on coated hTIGIT
CHO-K1-T1001细胞表达的人TIGIT [10] = biological target: T4, CHO-K1-T1001细胞表达的人TIGIT; experiment: cell ELISA on fixed hTIGIT+ CHO-K1 cells; reference Ref2
CHO-K1-T1001细胞表达的人TIGIT [11] = biological target: T4, CHO-K1-T1001细胞表达的人TIGIT; experiment: cell ELISA on fixed hTIGIT+ CHO-K1 cells; reference Ref1
[12] = biological target: T2, 人TIGIT重组蛋白 (hTIGIT; TIGIT-hFc 或 …); experiment: ELISA on coated antigen
LT023 (TIGIT/his) = biological target: T5, LT023 (TIGIT/his) (human, UniProt Q495A1 22-141); experiment: double sandwich ELISA: coated TIGIT/his, detection with PD-L1/mFc (Example 6), used on serum samples
T5 construct: extracellular domain; Made in-house
T5 sequence: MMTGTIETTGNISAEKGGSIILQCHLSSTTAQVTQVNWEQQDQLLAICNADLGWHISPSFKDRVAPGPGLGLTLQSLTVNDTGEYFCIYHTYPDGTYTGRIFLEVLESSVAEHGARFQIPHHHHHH

人PD-1(hFc/his tag) = biological target: T6, 人PD-1(hFc/his tag) (human, UniProt Q15116 25-170); experiment: ELISA on coated antigen
T6 construct: extracellular domain; not shown: C-terminal tag (hFc or his)
T6 sequence (Q15116 25-170): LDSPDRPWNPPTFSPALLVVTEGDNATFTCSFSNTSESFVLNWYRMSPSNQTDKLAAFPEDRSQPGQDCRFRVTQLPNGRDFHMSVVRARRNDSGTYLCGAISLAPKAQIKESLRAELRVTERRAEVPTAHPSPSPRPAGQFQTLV

小鼠TIGIT-his = biological target: T7, 小鼠TIGIT-his (mouse, UniProt P86176 29-148, limits assumed); experiment: ELISA on coated antigen (Example 3)
T7 construct: Bought reagent; also called mouse TIGIT-his; muTIGIT-his
T7 sequence: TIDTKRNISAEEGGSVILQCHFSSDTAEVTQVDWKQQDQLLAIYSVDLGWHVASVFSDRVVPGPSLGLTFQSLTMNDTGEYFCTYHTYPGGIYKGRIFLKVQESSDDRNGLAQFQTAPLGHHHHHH

B1: 嵌合抗体mab22c (antibody, human IgG1, kappa, V domains shown)
VH: EVKLVESGGGLVQPGGSLKLSCVASGFTFSSYTMSWVRQTPEKRLELVAEISSSGGSTYYPDTVKGRFTISRDNAKNTLFLQMNSLKSEDTAMYYCARPGLGAWFAYWGQGTLVTVSA
VL: DVLMTQTPLSLPVSLGDQASISCRSSQSIVHNSGNTYLEWYLQKPGQSPKLLIYKVSNRFSGVPDRFSGSGSGTDFTLKISRVEAEDLGIYYCFQFSHVPRTFGGGTKLEIKR
notes: also called 人鼠嵌合抗体mab22c
Q: B1 was tested. Which “IC50 ratio to Ref1” value (人TIGIT-hFc [1]) did it give?
A: 0.46 fold

Q: And the “EC50 ratio to Ref2” value [2]?
A: 0.68 fold

Q: What about the IC50 (人TIGIT-hFc [3]) of the same binder?
A: 541 pM

Q: And the “IC50 ratio to Ref2” value (人TIGIT-hFc [4])?
A: 0.51 fold

Q: What about the “EC50 ratio to Ref2” value (恒河猴TIGIT-mFc [5]) of the same binder?
A: ~2 fold

Q: And the EC50 (恒河猴TIGIT-mFc [6])?
A: 658 pM

Q: And the EC50 (CHO-K1-T1001细胞表达的人TIGIT [7])?
A: 101 pM

Q: And the “EC50 ratio to Ref1” value (恒河猴TIGIT-mFc [8])?
A: ~2 fold

Q: What about the EC50 [9] of the same binder?
A: 270 pM and 585 pM

Q: What about the “EC50 ratio to Ref2” value (CHO-K1-T1001细胞表达的人TIGIT [10]) of the same binder?
A: 0.47 fold

B2: 人源化抗体mab22-h6 (antibody, human IgG1, kappa)
heavy: not shown
light: DIVMTQSPLSLPVTPGEPASISCRSSQSIVHNSGNTYLEWYLQKPGQSPKLLIYKVSNRFSGVPDRFSGSGSGTDFTLKISRVEAEDVGVYYCFQFSHVPRTFGGGTKVEIKRTVAAPSVFIFPPSDEQLKSGTASVVCLLNNFYPREAKVQWKVDNALQSGNSQESVTEQDSKDSTYSLSSTLTLSKADYEKHKVYACEVTHQGLSSPVTKSFNRGEC
notes: hIgG1, kappa
Q: What does the source list for B2?
A: IC50 ratio to Ref1 (人TIGIT-hFc [1]): 0.44 fold; IC50 (人TIGIT-hFc [3]): 1440 pM; EC50 ratio to Ref1 (CHO-K1-T1001细胞表达的人TIGIT [11]): 0.5 fold; EC50 (CHO-K1-T1001细胞表达的人TIGIT [7]): 13.3 pM

B3: 人源化抗体mab22-h1 (antibody, human IgG1, kappa, V domains shown)
VH: EVQLVESGGGLVQPGGSLRLSCAASGFTFSSYTMSWVRQAPGKGLEWVSEISSSGGSTYYPDTVKGRFTISRDNSKNTLYLQMNSLRAEDTAVYYCARPGLGAWFAYWGQGTLVTVSS
VL: DIVMTQSPLSLPVTPGEPASISCRSSQSIVHNSGNTYLEWYLQKPGQSPQLLIYKVSNRFSGVPDRFSGSGSGTDFTLKISRVEAEDVGVYYCFQFSHVPRTFGGGTKVEIKR
notes: hIgG1, kappa
Q: Which results are given for B3?
A: binding result (CHO-K1-T1001细胞表达的人TIGIT [7]): binds; binding result [9]: binds

B4: 人源化抗体mab22-h2 (antibody, human IgG1, kappa, V domains shown)
VH: EVQLVESGGGLVQPGGSLRLSCAASGFTFSSYTMSWVRQAPGKGLEWVSEISSSGGSTYYPDTVKGRFTISRDNSKNTLYLQMNSLRAEDTAVYYCARPGLGAWFAYWGQGTLVTVSS
VL: DVVMTQSPLSLPVTPGEPASISCRSSQSIVHNSGNTYLEWYLQKPGQSPKLLIYKVSNRFSGVPDRFSGSGSGTDFTLKISRVEAEDVGVYYCFQFSHVPRTFGGGTKVEIKR
notes: hIgG1, kappa
Q: Does B4 bind (CHO-K1-T1001细胞表达的人TIGIT [7])?
A: binds

Q: Does B4 bind [9]?
A: binds

B5: 双特异抗体LB621 (bispecific antibody)
heavy: not shown
light: DIVMTQSPLSLPVTPGEPASISCRSSQSIVHNSGNTYLEWYLQKPGQSPKLLIYKVSNRFSGVPDRFSGSGSGTDFTLKISRVEAEDVGVYYCFQFSHVPRTFGGGTKVEIKRTVAAPSVFIFPPSDEQLKSGTASVVCLLNNFYPREAKVQWKVDNALQSGNSQESVTEQDSKDSTYSLSSTLTLSKADYEKHKVYACEVTHQGLSSPVTKSFNRGEC
notes: Whole mab22-h6 antibody with an anti-PD-L1 (Atezo) scFv joined to its heavy chain; the printed heavy chain carries the scFv at the C-terminus with the last K changed to A
Q: Which results are given for B5?
A: binding result [12]: binds; binding result (LT023 (TIGIT/his)): binds

B6: 双特异抗体LB610 (bispecific antibody, human IgG1, kappa)
heavy: not shown
light: DIVMTQSPLSLPVTPGEPASISCRSSQSIVHNSGNTYLEWYLQKPGQSPKLLIYKVSNRFSGVPDRFSGSGSGTDFTLKISRVEAEDVGVYYCFQFSHVPRTFGGGTKVEIKRTVAAPSVFIFPPSDEQLKSGTASVVCLLNNFYPREAKVQWKVDNALQSGNSQESVTEQDSKDSTYSLSSTLTLSKADYEKHKVYACEVTHQGLSSPVTKSFNRGEC
Q: Does B6 bind [12]?
A: binds

Q: Does B6 bind (人PD-1(hFc/his tag))?
A: binds

B7: 双特异抗体LB615 (bispecific antibody)
heavy: not shown
light: DIVMTQSPLSLPVTPGEPASISCRSSQSIVHNSGNTYLEWYLQKPGQSPKLLIYKVSNRFSGVPDRFSGSGSGTDFTLKISRVEAEDVGVYYCFQFSHVPRTFGGGTKVEIKRTVAAPSVFIFPPSDEQLKSGTASVVCLLNNFYPREAKVQWKVDNALQSGNSQESVTEQDSKDSTYSLSSTLTLSKADYEKHKVYACEVTHQGLSSPVTKSFNRGEC
Q: Does B7 bind [12]?
A: binds

B8: IF091 (鼠源单克隆抗体mab22) (antibody, V domains shown)
VH: EVKLVESGGGLVQPGGSLKLSCVASGFTFSSYTMSWVRQTPEKRLELVAEISSSGGSTYYPDTVKGRFTISRDNAKNTLFLQMNSLKSEDTAMYYCARPGLGAWFAYWGQGTLVTVSA
VL: DVLMTQTPLSLPVSLGDQASISCRSSQSIVHNSGNTYLEWYLQKPGQSPKLLIYKVSNRFSGVPDRFSGSGSGTDFTLKISRVEAEDLGIYYCFQFSHVPRTFGGGTKLEIK
notes: Mouse antibody purified from ascites
Q: Does B8 bind (小鼠TIGIT-his)?
A: no binding (tested: 10μg/mL起始，5倍梯度稀释)
